Data published in article PMC11538602, “Substrate binding and catalytic mechanism of UDP-α-D-galactofuranose: β-galactofuranoside β-(1→5)-galactofuranosyltransferase GfsA” (PNAS Nexus, 2024).

How the values were obtained:
[1] = biological target: GfsA (UDP-α-D-galactofuranose: β-galactofuranoside β-(1→5)-galactofuranosyltransferase) from Aspergillus fumigatus, soluble catalytic domain, residues 43–537 (Aspergillus fumigatus); assay: SEC; gel filtration chromatography of GfsA purified with Ni-agarose; broad single peak, estimated 120 kDa against 58 kDa for the monomer
GfsA = biological target: T1, GfsA (Aspergillus fumigatus, UniProt B0YDN6); assay: X-ray crystal structure, […] A; format: binding; conditions: crystal with UDP and Mn2+ soaked with 50 mM pNP-Galf, pNP group not resolved, only Galf modelled; acceptor site, D335 and D360
T1 construct: gene AFUB_096220; soluble catalytic domain, residues 43-537 without transmembrane segment; N-terminal 6xHis-tag (pET15b); E. coli Rosetta-gami B (DE3); 58 kDa; homodimer (120 kDa by gel filtration); GT31

stoichiometry N [1] | Compound | X-ray crystal structure, 2.37 A (GfsA)
2 | GfsA (UDP-α-D-galactofuranose: β-galactofuranoside β-(1→5)-galactofuranosyltransferase) from Aspergillus fumigatus, soluble catalytic domain, residues 43–537 (enzyme) | 
 | OC[C@@H](O)[C@@H]1O[C@@H](O)[C@H](O)[C@H]1O [Galf] | Galf, was present within the depression and hydrogen bonded with D335 and D360
